Laboratory results as given in patent US20180155450A1 (Sanofi, published 2018).
Where two headings read alike, the source gives them in different places.

Key:
[1] = molecular target: T1, recombinant human IL13 (human, UniProt P35225 35-146, limits assumed); assay: SPR, BIACORE 3000; antibody captured by anti-human Fc, antigen 0-25 nM as analyte
T1 construct: also called Antigen2
T1 sequence (P35225 35-146 limits assumed): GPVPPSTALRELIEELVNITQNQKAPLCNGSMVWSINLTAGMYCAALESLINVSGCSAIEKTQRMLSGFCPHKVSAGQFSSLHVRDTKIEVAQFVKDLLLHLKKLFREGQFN
Method: Kinetic characterization of purified antibodies was performed using surface plasmon resonance technology on a BIACORE 3000 (GE Healthcare). […] Chip surfaces were regenerated with 10 mM glycine, pH 2.5. Kinetic parameters were analyzed and calculated in the BIAevaluation program package v4.1 using a flow cell without captured antibody as reference.

[2] = molecular target: T2, recombinant human IL4 (human, UniProt P05112 25-153); assay: cell-based or functional assay
T2 sequence (looked up): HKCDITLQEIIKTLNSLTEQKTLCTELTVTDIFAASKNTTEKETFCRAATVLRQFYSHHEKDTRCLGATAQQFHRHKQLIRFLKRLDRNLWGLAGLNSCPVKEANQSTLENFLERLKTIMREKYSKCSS

[3] = molecular target: T2, recombinant human IL4; assay: SPR (Biacore 3000), antibody captured, antigen as analyte
Method: (§1) Kinetic binding analysis by Biacore was performed as follows. Surface plasmon resonance technology on a Biacore 3000 (GE Healthcare) was used for detailed kinetic characterization of purified antibodies. […] Chip surfaces were regenerated with 10 mM glycine pH 2.5. Kinetic parameters were analyzed and calculated in the BIAevaluation program package v4.1 using a flow cell without captured antibody as a reference.

[4] = molecular target: T2, recombinant human IL4; assay: as above; remark: listed apart in the source
Method: as §1

[5] = molecular target: T2, recombinant human IL4; assay: SPR (Biacore 3000), CODV-Fab captured with anti-human Fab capture kit, antigen as analyte
Method: as §1

[6] = molecular target: T2, recombinant human IL4; assay: cell-based or functional assay; remark: listed apart in the source
[7] = molecular target: recombinant human IL13 (human, UniProt P35225 35-146, limits assumed); assay: cell-based or functional assay
Target sequence in this assay (P35225 35-146 limits assumed): as the sequence (P35225 35-146 limits assumed) above

B1: parental anti-IL13 mAb (antibody, V domains shown)
VH: EVQLKESGPGLVAPGGSLSITCTVSGFSLTDSSINWVRQPPGKGLEWLGMIWGDGRIDYADALKSRLSISKDSSKSQVFLEMTSLRTDDTATYYCARDGYFPYAMDFWGQGTSVTVSS
VL: DIVLTQSPASLAVSLGQRATISCRASESVDSYGQSYMHWYQQKAGQPPKLLIYLASNLESGVPARFSGSGSRTDFTLTIDPVQAEDAATYYCQQNAEDSRTFGGGTKLEIK
notes: also called parental humanized anti-IL13; BB13
[1]
  Kd: 0.0818 nM

B2: CODV-Ig Batch ID 204 (IL4 × IL13 on HC; L1=7, L2=5, L3=1, L4=2) (bispecific antibody)
heavy: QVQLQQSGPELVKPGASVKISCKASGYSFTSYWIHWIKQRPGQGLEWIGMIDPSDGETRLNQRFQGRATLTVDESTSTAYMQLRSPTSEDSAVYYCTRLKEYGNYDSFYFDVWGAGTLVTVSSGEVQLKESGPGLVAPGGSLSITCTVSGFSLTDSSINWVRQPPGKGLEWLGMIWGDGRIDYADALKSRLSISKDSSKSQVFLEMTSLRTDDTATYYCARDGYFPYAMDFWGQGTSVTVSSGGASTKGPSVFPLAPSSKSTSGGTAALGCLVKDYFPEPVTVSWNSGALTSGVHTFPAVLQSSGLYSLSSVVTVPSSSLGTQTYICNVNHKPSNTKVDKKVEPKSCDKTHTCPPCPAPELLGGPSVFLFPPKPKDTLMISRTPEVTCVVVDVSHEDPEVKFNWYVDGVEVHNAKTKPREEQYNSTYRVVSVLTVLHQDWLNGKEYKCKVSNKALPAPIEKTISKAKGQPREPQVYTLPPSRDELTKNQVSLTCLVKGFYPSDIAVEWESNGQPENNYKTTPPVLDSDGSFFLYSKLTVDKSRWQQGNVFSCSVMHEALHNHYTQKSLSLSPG
light: DIVLTQSPASLAVSLGQRATISCRASESVDSYGQSYMHWYQQKAGQPPKLLIYLASNLESGVPARFSGSGSRTDFTLTIDPVQAEDAATYYCQQNAEDSRTFGGGTKLEIKGGGGGGGDIQMTQSPASLSVSVGDTITLTCHASQNIDVWLSWFQQKPGNIPKLLIYKASNLHTGVPSRFSGSGSGTGFTLTISSLQPEDIATYYCQQAHSYPFTFGGGTKLEIKGGGGGRTVAAPSVFIFPPSDEQLKSGTASVVCLLNNFYPREAKVQWKVDNALQSGNSQESVTEQDSKDSTYSLSSTLTLSKADYEKHKVYACEVTHQGLSSPVTKSFNRGEC
notes: 704 prints 'IL13 × IL4' and format 'CODV'; also called 801; 704
[2]
  IC50 Cellular Assay IL4 [nM] (HEK-Blue IL-4/IL-13 reporter cells, SEAP): 0.045 nM
[3]
  Kd: 0.003 nM
[4]
  Kd: 0.003 nM

B3: CODV-Fab Batch ID 421 (IL4 × IL13; L1=7, L2=5, L3=1, L4=2) (bispecific antibody)
heavy: QVQLQQSGPELVKPGASVKISCKASGYSFTSYWIHWIKQRPGQGLEWIGMIDPSDGETRLNQRFQGRATLTVDESTSTAYMQLRSPTSEDSAVYYCTRLKEYGNYDSFYFDVWGAGTLVTVSSGEVQLKESGPGLVAPGGSLSITCTVSGFSLTDSSINWVRQPPGKGLEWLGMIWGDGRIDYADALKSRLSISKDSSKSQVFLEMTSLRTDDTATYYCARDGYFPYAMDFWGQGTSVTVSSGGASTKGPSVFPLAPSSKSTSGGTAALGCLVKDYFPEPVTVSWNSGALTSGVHTFPAVLQSSGLYSLSSVVTVPSSSLGTQTYICNVNHKPSNTKVDKKVEPKSCDKTHTHHHHHH
light: B2 light
[5]
  Kd: 0.012 nM

B4: CODV-Ig Batch ID 601 (Batch ID 204 with P344C & A432C in IGHG1) (bispecific antibody, human IgG1, kappa)
heavy: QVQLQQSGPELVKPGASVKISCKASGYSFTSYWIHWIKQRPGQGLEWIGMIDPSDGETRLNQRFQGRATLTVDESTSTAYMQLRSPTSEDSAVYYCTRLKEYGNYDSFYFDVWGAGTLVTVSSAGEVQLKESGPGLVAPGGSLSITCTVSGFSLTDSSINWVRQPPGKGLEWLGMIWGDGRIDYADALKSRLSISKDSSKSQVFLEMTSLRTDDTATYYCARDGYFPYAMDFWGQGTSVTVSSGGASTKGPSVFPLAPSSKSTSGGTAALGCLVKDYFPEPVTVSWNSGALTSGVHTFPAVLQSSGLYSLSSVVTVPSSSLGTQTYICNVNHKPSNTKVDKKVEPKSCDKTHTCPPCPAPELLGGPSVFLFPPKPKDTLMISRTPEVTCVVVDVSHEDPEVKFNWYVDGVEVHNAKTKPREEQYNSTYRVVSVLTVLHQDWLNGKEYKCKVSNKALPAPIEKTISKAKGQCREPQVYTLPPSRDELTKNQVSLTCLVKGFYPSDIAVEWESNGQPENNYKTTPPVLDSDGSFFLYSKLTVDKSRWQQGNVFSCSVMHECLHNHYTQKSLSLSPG
light: DIVLTQSPASLAVSLGQRATISCRASESVDSYGQSYMHWYQQKAGQPPKLLIYLASNLESGVPARFSGSGSRTDFTLTIDPVQAEDAATYYCQQNAEDSRTFGGGTKLEIKGGGGGGGDIQMTQSPASLSVSVGDTITLTCHASQNIDVWLSWFQQKPGNIPKLLIYKASNLHTGVPSRFSGSGSGTGFTLTISSLQPEDIATYYCQQAHSYPFTFGGGTKLEIKRGGGGGRTVAAPSVFIFPPSDEQLKSGTASVVCLLNNFYPREAKVQWKVDNALQSGNSQESVTEQDSKDSTYSLSSTLTLSKADYEKHKVYACEVTHQGLSSPVTKSFNRGEC
[6]
  IC50 Cellular Assay IL4 [nM] (HEK-Blue IL-4/IL-13 reporter cells, SEAP): 0.032 nM
[7]
  IC50 Cellular Assay IL13 [nM] (HEK-Blue IL-4/IL-13 reporter cells, SEAP): 1.7 nM
